US20050215470A1 (Amgen, published 2005)
Non-standard residues stand in square brackets, D forms with d. No end group written: not given here. Gly(cPent) = N[C@H](C(=O)O)C1CCCC1; Hyp = O=C(O)[C@@H]1C[C@@H](O)CN1; dTic = O=C(O)[C@H]1Cc2ccccc2CN1

T1: human bradykinin B2 receptor (human, UniProt P30411 1-391)
T1 sequence (looked up): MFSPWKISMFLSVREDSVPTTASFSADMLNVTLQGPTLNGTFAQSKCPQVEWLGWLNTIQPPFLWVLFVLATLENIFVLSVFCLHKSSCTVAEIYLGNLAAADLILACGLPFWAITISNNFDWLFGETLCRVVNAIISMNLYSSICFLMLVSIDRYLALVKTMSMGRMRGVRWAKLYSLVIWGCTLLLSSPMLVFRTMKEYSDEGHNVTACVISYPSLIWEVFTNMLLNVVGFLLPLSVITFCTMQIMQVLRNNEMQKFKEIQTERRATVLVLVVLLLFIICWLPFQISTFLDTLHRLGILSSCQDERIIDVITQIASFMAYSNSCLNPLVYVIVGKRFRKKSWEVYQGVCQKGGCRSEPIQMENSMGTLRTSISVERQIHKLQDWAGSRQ

T2: human bradykinin B1 receptor (human, UniProt P46663 1-353)
T2 sequence (looked up): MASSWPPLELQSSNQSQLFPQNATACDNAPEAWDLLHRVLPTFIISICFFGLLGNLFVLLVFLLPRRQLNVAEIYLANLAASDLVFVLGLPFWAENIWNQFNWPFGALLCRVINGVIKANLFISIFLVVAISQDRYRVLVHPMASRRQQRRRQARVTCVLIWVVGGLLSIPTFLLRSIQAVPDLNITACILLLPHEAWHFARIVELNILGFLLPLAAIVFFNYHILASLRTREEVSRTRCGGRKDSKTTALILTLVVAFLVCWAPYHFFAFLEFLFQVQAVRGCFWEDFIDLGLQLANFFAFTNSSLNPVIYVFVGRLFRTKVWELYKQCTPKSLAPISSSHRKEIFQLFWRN


Tests used:
[1] = target: T1, human bradykinin B2 receptor; experiment: cell-based or functional assay
[2] = target: T2, human bradykinin B1 receptor; experiment: cell-based or functional assay
[3] = target: T2, human bradykinin B1 receptor; experiment: binding affinity (Ki) at the human B1 receptor; assay format not described
[4] = target: T2, human bradykinin B1 receptor; experiment: cell-based or functional assay; remark: listed apart in the source

antagonist activity in the hB2 FLIPR assay [1] | fold increase in IC50 in the hB1 aequorin assay against the unconjugated peptide [2] | IC50 in the hB1 aequorin assay [2] | Ki [3] | hB1 IC50 (nM), functional potency [4] | Binder
> 10 µM | ~10 fold | – | – | – | KKRP[Hyp]G[Gly(cPent)]S[dTic][Gly(cPent)] (also: conjugated to PEG, size, linker and site not given here) [the same peptide (SEQ ID NO:36) conjugated to PEG]
> 10 µM | – | 3 nM | – | – | KKRP[Hyp]G[Gly(cPent)]S[dTic][Gly(cPent)] [SEQ ID NO:36]
> 10 µM | – | – | 0.8 nM | 1 nM | Ac-KKRP[Hyp]G[Gly(cPent)]S[dTic][Gly(cPent)] [SEQ ID NO: 37]
